Reference: the supplement of paper PMC10065799, “High-throughput profiling of sequence recognition by tyrosine kinases and SH2 domains using bacterial peptide display” (eLife, 2023)

The sequences below were run against EPHB1 (UniProt P54762) (assay: phosphorylation enrichment, bacterial display (enrichment ratio); higher = better substrate or ligand; peptides without Tyr show the background).
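Also: 11-residue human phosphosite peptides and single-mutation variants displayed on the E. coli surface, counted by deep sequencing, each peptide's frequency after selection divided by its frequency in the unselected input library; frequency after pTyr selection over input frequency; kinase dosed for 20-30% of maximal phosphorylation in three min.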

Sequence of EPHB1 (P54762 whole entry, looked up): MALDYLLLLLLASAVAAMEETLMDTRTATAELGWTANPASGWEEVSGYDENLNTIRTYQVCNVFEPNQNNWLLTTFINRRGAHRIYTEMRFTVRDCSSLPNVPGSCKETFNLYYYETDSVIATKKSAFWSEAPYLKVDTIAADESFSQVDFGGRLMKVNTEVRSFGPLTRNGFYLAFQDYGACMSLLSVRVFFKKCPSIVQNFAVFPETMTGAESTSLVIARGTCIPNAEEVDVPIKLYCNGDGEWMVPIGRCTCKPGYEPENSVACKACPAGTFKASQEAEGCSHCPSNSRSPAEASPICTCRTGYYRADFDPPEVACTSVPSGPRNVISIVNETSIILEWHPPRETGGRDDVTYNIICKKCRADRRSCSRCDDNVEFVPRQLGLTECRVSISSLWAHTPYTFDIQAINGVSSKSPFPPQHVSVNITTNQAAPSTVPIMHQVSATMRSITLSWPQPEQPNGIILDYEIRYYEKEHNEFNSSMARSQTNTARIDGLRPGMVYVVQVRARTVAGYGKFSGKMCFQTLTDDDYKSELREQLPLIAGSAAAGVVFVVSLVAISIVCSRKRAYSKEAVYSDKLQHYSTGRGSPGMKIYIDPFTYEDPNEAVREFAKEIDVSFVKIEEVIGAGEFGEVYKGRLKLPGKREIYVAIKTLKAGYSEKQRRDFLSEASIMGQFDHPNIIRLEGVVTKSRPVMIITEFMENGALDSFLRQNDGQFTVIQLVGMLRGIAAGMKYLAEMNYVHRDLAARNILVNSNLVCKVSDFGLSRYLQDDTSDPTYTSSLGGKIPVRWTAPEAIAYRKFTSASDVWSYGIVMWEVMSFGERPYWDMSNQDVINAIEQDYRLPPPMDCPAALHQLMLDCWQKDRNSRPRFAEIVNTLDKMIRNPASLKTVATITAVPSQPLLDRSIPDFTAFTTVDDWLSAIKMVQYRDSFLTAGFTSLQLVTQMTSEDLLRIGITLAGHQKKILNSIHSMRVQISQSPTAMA

In order of rising phosphorylation enrichment:
1. ALAHKYQGGGG [HBB_Y146_H147Q]  0.204
2. REAAAYPHGRL [AGXT_Y297_L298P]  0.254
3. LIHLHYIRRDY [BBS4_Y43_K46R]  0.334
4. TTPGPHRSIYF [MPG_Y71_Y71H]  0.355
5. QGLRLYRTHLA [BTK_Y617_P619T]  0.359
6. RETLTYAQAQR [BRD1_Y33]  0.383
7. EYITRYIDSLK [PSMA7_Y110_A112D]  0.396
8. RMLRKYQELMS [KRT74_Y425_E424K]  0.419
9. IKGIRYLHHRG [GUCY2D_Y656]  0.423
10. ILTLKYPIKHG [ACTA1_Y71_E74K]  0.426
11. GIVKAYFVRAR [AIPL1_Y267_YF]  0.445
12. SILAVYSKDNY [PANK2_Y400]  0.478
13. SIKDKYVTAFY [KCNH2_Y611_L615F]  0.488
14. APGDAYGDAGF [SYP_Y250_YF]  0.514
15. EEGNPYFSGAR [MCCC2_Y520_S523G_YF]  0.516
16. LQLLGDRPVFS [CHST6_Y358_Y358D_YF]  0.521
17. SVVVPYEPPGV [TP53_Y220_E224G]  0.525
18. VNKGGYFSVNL [C3orf33_Y164_S160N]  0.553
19. FAKSVYWENTL [NUP107_Y296_YF]  0.554
20. YAKSVYWENTL [NUP107_Y296]  0.584
21. SLEKSYELPDG [ACTA1_Y242]  0.614
22. QSHKVYFQHLL [POR_Y604_V605F]  0.671
23. GEEIKYTLWLS [OTC_Y55_M56T]  0.704
24. SREALYNEMDP [CACNA1A_Y794]  0.735
25. ESMNIYLQTSP [NAT1_Y208_T207I]  0.752
26. CKSVHYDLVFL [COL22A1_Y37]  0.806
27. VRSVDYVLFRS [FAM189B_Y361]  0.825
28. SSPVLYLSPET [TJP1_Y931_P930L]  1.14
29. HLVLNYGVCIC [JAK2_Y613_V617I]  1.39
30. LESTLYESSVV [TRPV4_Y91]  1.41
31. NKEAIYSGYIR [SMCHD1_Y283]  5.4
32. QSSALYEDHYL [ASS1_Y83_R86H]  5.41
33. DCVRMYELVHR [GLE1_Y135_G130D]  7.46

The sequences below were run against EPHB2 (UniProt P29323) in the same assay as above.
Sequence of EPHB2 (P29323 whole entry, looked up): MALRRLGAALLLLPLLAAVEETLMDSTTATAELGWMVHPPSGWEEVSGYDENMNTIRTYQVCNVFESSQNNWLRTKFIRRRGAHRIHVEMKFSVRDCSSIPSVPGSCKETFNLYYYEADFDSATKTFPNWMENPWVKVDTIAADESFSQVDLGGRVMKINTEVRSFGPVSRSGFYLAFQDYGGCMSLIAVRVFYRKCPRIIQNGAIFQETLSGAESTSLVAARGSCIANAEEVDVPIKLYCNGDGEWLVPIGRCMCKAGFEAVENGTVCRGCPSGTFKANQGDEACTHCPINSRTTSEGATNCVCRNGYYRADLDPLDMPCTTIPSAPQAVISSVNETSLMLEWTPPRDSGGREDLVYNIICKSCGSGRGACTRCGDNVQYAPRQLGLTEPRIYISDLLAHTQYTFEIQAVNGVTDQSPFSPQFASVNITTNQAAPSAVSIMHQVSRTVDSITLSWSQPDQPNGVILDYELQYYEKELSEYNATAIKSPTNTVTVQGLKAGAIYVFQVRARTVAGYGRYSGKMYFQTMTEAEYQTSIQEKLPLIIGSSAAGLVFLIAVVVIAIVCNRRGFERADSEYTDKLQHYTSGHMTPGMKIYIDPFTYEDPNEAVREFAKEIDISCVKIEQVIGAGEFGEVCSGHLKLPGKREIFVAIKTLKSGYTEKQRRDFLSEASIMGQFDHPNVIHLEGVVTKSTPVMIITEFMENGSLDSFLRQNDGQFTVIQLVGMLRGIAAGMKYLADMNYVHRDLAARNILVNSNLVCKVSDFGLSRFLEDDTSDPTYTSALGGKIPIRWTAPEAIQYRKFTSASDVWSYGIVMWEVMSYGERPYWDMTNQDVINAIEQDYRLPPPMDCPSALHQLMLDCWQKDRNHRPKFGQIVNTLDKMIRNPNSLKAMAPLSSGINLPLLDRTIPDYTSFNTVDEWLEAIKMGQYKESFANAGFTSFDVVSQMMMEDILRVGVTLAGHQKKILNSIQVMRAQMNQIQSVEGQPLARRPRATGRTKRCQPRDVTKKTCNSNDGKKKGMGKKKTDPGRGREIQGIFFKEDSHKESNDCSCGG

In order of falling phosphorylation enrichment:
1. NKEAIYSGYIR [SMCHD1_Y283]  11.2
2. DCVRMYELVHR [GLE1_Y135_G130D]  3.53
3. QSSALYEDHYL [ASS1_Y83_R86H]  2.07
4. LESTLYESSVV [TRPV4_Y91]  1.35
5. HLVLNYGVCIC [JAK2_Y613_V617I]  0.92
6. SSPVLYLSPET [TJP1_Y931_P930L]  0.815
7. CKSVHYDLVFL [COL22A1_Y37]  0.739
8. ESMNIYLQTSP [NAT1_Y208_T207I]  0.697
9. SREALYNEMDP [CACNA1A_Y794]  0.693
10. GEEIKYTLWLS [OTC_Y55_M56T]  0.605
11. EYITRYIDSLK [PSMA7_Y110_A112D]  0.552
12. APGDAYGDAGF [SYP_Y250_YF]  0.548
13. VRSVDYVLFRS [FAM189B_Y361]  0.534
14. SLEKSYELPDG [ACTA1_Y242]  0.531
15. FAKSVYWENTL [NUP107_Y296_YF]  0.531
16. SVVVPYEPPGV [TP53_Y220_E224G]  0.53
17. LIHLHYIRRDY [BBS4_Y43_K46R]  0.526
18. ILTLKYPIKHG [ACTA1_Y71_E74K]  0.518
19. QSHKVYFQHLL [POR_Y604_V605F]  0.503
20. LQLLGDRPVFS [CHST6_Y358_Y358D_YF]  0.487
21. SILAVYSKDNY [PANK2_Y400]  0.486
22. QGLRLYRTHLA [BTK_Y617_P619T]  0.486
23. YAKSVYWENTL [NUP107_Y296]  0.485
24. RETLTYAQAQR [BRD1_Y33]  0.478
25. EEGNPYFSGAR [MCCC2_Y520_S523G_YF]  0.462
26. TTPGPHRSIYF [MPG_Y71_Y71H]  0.444
27. REAAAYPHGRL [AGXT_Y297_L298P]  0.442
28. SIKDKYVTAFY [KCNH2_Y611_L615F]  0.439
29. ALAHKYQGGGG [HBB_Y146_H147Q]  0.436
30. GIVKAYFVRAR [AIPL1_Y267_YF]  0.434
31. VNKGGYFSVNL [C3orf33_Y164_S160N]  0.411
32. RMLRKYQELMS [KRT74_Y425_E424K]  0.397
33. IKGIRYLHHRG [GUCY2D_Y656]  0.358

Each sequence was assayed against Jak2 (UniProt O60674) in the same assay as above.
Sequence of Jak2 (O60674 whole entry, looked up): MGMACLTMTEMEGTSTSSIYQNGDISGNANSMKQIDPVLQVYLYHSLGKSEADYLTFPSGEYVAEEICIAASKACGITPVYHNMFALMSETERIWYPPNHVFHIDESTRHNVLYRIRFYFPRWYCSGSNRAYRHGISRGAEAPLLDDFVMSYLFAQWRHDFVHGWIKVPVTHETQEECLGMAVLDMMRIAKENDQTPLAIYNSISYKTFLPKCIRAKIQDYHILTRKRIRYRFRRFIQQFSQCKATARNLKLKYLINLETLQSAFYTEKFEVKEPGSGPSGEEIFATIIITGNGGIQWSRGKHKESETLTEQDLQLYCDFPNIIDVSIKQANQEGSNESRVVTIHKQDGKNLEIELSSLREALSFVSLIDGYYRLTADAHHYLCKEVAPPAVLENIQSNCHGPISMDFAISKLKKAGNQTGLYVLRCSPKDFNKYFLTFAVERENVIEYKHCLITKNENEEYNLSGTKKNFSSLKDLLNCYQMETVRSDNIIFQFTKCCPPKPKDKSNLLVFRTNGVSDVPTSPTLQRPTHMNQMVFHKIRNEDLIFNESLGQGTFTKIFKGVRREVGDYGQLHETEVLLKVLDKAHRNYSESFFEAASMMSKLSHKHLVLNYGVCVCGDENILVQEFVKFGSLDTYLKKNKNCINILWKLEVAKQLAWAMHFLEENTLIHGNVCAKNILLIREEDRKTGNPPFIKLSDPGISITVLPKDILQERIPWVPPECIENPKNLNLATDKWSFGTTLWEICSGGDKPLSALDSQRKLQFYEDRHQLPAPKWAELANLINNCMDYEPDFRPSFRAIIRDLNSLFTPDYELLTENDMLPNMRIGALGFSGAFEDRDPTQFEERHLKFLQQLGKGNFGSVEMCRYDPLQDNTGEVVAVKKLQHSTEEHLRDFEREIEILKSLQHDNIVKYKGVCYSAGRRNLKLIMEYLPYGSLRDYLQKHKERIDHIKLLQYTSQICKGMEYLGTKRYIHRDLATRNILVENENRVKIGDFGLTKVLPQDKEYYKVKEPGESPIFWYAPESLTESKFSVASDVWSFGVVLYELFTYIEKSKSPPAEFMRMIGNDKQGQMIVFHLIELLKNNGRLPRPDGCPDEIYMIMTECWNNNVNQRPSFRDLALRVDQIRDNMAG

In order of rising phosphorylation enrichment:
1. TTPGPHRSIYF [MPG_Y71_Y71H]  0.357
2. RMLRKYQELMS [KRT74_Y425_E424K]  0.5
3. SIKDKYVTAFY [KCNH2_Y611_L615F]  0.523
4. ALAHKYQGGGG [HBB_Y146_H147Q]  0.527
5. SILAVYSKDNY [PANK2_Y400]  0.549
6. SVVVPYEPPGV [TP53_Y220_E224G]  0.55
7. ILTLKYPIKHG [ACTA1_Y71_E74K]  0.558
8. LIHLHYIRRDY [BBS4_Y43_K46R]  0.562
9. NKEAIYSGYIR [SMCHD1_Y283]  0.571
10. QGLRLYRTHLA [BTK_Y617_P619T]  0.577
11. VRSVDYVLFRS [FAM189B_Y361]  0.583
12. IKGIRYLHHRG [GUCY2D_Y656]  0.597
13. LQLLGDRPVFS [CHST6_Y358_Y358D_YF]  0.633
14. EYITRYIDSLK [PSMA7_Y110_A112D]  0.677
15. RETLTYAQAQR [BRD1_Y33]  0.694
16. REAAAYPHGRL [AGXT_Y297_L298P]  0.704
17. APGDAYGDAGF [SYP_Y250_YF]  0.8
18. EEGNPYFSGAR [MCCC2_Y520_S523G_YF]  0.802
19. YAKSVYWENTL [NUP107_Y296]  0.821
20. SLEKSYELPDG [ACTA1_Y242]  0.913
21. FAKSVYWENTL [NUP107_Y296_YF]  0.987
22. SSPVLYLSPET [TJP1_Y931_P930L]  1.02
23. DCVRMYELVHR [GLE1_Y135_G130D]  1.09
24. GIVKAYFVRAR [AIPL1_Y267_YF]  1.13
25. SREALYNEMDP [CACNA1A_Y794]  1.14
26. ESMNIYLQTSP [NAT1_Y208_T207I]  1.17
27. QSSALYEDHYL [ASS1_Y83_R86H]  1.18
28. CKSVHYDLVFL [COL22A1_Y37]  1.19
29. GEEIKYTLWLS [OTC_Y55_M56T]  1.21
30. QSHKVYFQHLL [POR_Y604_V605F]  1.22
31. VNKGGYFSVNL [C3orf33_Y164_S160N]  1.23
32. HLVLNYGVCIC [JAK2_Y613_V617I]  1.68
33. LESTLYESSVV [TRPV4_Y91]  2.15

These sequences were tested against FGFR1 (UniProt P11362) in the same assay as above.
Sequence of FGFR1 (P11362 whole entry, looked up): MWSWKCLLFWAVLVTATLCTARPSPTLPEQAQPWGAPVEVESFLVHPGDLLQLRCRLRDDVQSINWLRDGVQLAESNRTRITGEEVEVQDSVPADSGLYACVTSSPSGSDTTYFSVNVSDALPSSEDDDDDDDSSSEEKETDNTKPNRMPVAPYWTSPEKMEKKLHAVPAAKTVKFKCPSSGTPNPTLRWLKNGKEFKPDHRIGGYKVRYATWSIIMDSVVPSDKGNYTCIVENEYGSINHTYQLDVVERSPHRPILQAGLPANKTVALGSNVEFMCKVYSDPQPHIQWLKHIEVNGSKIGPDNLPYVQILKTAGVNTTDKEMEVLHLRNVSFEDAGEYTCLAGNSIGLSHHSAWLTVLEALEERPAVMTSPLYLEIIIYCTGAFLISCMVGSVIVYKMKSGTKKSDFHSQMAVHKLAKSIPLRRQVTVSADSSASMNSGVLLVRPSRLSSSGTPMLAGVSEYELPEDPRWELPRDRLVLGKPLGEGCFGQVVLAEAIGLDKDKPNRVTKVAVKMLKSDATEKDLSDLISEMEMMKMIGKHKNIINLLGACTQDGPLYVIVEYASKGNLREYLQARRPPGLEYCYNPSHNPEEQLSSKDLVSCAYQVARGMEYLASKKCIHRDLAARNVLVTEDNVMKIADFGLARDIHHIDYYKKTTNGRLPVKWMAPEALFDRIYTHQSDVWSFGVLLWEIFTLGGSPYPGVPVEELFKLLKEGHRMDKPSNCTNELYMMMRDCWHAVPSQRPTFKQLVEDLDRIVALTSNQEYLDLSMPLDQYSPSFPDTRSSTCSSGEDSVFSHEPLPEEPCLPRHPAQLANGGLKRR

In order of falling phosphorylation enrichment:
1. VRSVDYVLFRS [FAM189B_Y361]  2.09
2. LESTLYESSVV [TRPV4_Y91]  1.31
3. SREALYNEMDP [CACNA1A_Y794]  0.692
4. ESMNIYLQTSP [NAT1_Y208_T207I]  0.674
5. SSPVLYLSPET [TJP1_Y931_P930L]  0.663
6. QSHKVYFQHLL [POR_Y604_V605F]  0.622
7. HLVLNYGVCIC [JAK2_Y613_V617I]  0.607
8. VNKGGYFSVNL [C3orf33_Y164_S160N]  0.599
9. DCVRMYELVHR [GLE1_Y135_G130D]  0.594
10. TTPGPHRSIYF [MPG_Y71_Y71H]  0.579
11. NKEAIYSGYIR [SMCHD1_Y283]  0.565
12. RMLRKYQELMS [KRT74_Y425_E424K]  0.556
13. SLEKSYELPDG [ACTA1_Y242]  0.544
14. RETLTYAQAQR [BRD1_Y33]  0.541
15. GEEIKYTLWLS [OTC_Y55_M56T]  0.538
16. CKSVHYDLVFL [COL22A1_Y37]  0.532
17. EYITRYIDSLK [PSMA7_Y110_A112D]  0.528
18. EEGNPYFSGAR [MCCC2_Y520_S523G_YF]  0.521
19. FAKSVYWENTL [NUP107_Y296_YF]  0.506
20. YAKSVYWENTL [NUP107_Y296]  0.49
21. GIVKAYFVRAR [AIPL1_Y267_YF]  0.487
22. APGDAYGDAGF [SYP_Y250_YF]  0.484
23. SIKDKYVTAFY [KCNH2_Y611_L615F]  0.483
24. QSSALYEDHYL [ASS1_Y83_R86H]  0.477
25. ALAHKYQGGGG [HBB_Y146_H147Q]  0.476
26. SVVVPYEPPGV [TP53_Y220_E224G]  0.469
27. SILAVYSKDNY [PANK2_Y400]  0.451
28. ILTLKYPIKHG [ACTA1_Y71_E74K]  0.449
29. LQLLGDRPVFS [CHST6_Y358_Y358D_YF]  0.448
30. LIHLHYIRRDY [BBS4_Y43_K46R]  0.417
31. IKGIRYLHHRG [GUCY2D_Y656]  0.348
32. QGLRLYRTHLA [BTK_Y617_P619T]  0.306
33. REAAAYPHGRL [AGXT_Y297_L298P]  0.25
